The values below come from the Immune Epitope Database (IEDB).

Where only a bound is given, the exact number is not on record here.

Among the targets are HLA-A*02:03; HLA-A*02:06; HLA-A*02:02.
Experiment in all cases: IEDB peptide-MHC binding, purified MHC/competitive/radioactivity; filed as Kd, often an IC50 or EC50 that approximates it; ≥ and ≤ were set here for values at or beyond the usual limits of such assays
Where [1] appears, read: source organism: Vaccinia virus WR.
The mark [2] stands for this setting: source organism: SARS coronavirus Tor2.
The mark [3] stands for this setting: source organism: Dengue virus 3 Martinique/1243/1999.
Where [4] appears, read: source organism: Mammarenavirus lassaense.
[5] abbreviates: source organism: HIV-1 M:B_ARV2/SF2.

In the case of AAAATCALV, the dissociation constant Kd with HLA-A*02:03 (setting [1]) stood at 9.05 nM; with HLA-A*02:06 (setting [1]), 12.5 nM; with HLA-A*02:02 (setting [1]), 14.6 nM.

As to ALALEQYGI, the Kd was determined as 40 nM with HLA-A*02:03 (setting [1]), 548 nM in the test with HLA-A*02:06 (setting [1]) and 0.695 nM in the test with HLA-A*02:02 (setting [1]).

In the case of ATFRDMLLNV, the results for the Kd with HLA-A*02:03 (setting [1]), with HLA-A*02:06 (setting [1]) and with HLA-A*02:02 (setting [1]) were 0.398 nM, 3.03 nM and 7.06 nM, respectively.

Turning to AVTLNRIKI, the Kd worked out at 3340 nM with HLA-A*02:03 (setting [1]), 7610 nM with HLA-A*02:06 (setting [1]) and 10800 nM with HLA-A*02:02 (setting [1]).

With DISSFYWSL, the Kd with HLA-A*02:03 (setting [1]) worked out at 6870 nM; with HLA-A*02:06 (setting [1]), 3970 nM; in the test with HLA-A*02:02 (setting [1]) it was 391 nM.

As to DMLKLFTHDI, the Kd with HLA-A*02:03 (setting [1]) worked out at 16.1 nM; with HLA-A*02:06 (setting [1]), 2970 nM; with HLA-A*02:02 (setting [1]) it was 196 nM.

With DVDMDFDLNI, the equilibrium dissociation constant (Kd) in the test with HLA-A*02:03 (setting [1]) amounted to 1520 nM; in the test with HLA-A*02:06 (setting [1]) it was 5820 nM; with HLA-A*02:02 (setting [1]), 2030 nM.

On to EATFIDVHI, for which the Kd with HLA-A*02:03 (setting [1]) came out at 862 nM; in the test with HLA-A*02:06 (setting [1]), 3430 nM; with HLA-A*02:02 (setting [1]) it was 1660 nM.

Consider ELLEMKYAL, for which the Kd with HLA-A*02:03 (setting [1]) turned out to be 863 nM; in the test with HLA-A*02:06 (setting [1]), 6010 nM; with HLA-A*02:02 (setting [1]), 952 nM.

With ELPYVGDTSM, the values for the Kd in the test with HLA-A*02:03 (setting [1]), with HLA-A*02:06 (setting [1]) and with HLA-A*02:02 (setting [1]) were 14200 nM, not below 29900 nM and 4130 nM, respectively.

Consider ETMYLTMKAI, for which the figures for the dissociation constant Kd with HLA-A*02:03 (setting [1]), in the test with HLA-A*02:06 (setting [1]) and with HLA-A*02:02 (setting [1]) were 25.2 nM, 3580 nM and 1320 nM, respectively.

Take ETQSGALEVL: the Kd stood at 14500 nM with HLA-A*02:03 (setting [1]), 1580 nM with HLA-A*02:06 (setting [1]) and 5310 nM with HLA-A*02:02 (setting [1]).

Turning to FAVGLLFRRL, in the test with HLA-A*02:06 (source organism: Dengue virus 1 Brazil/97-11/1997), the Kd worked out at 20.4 nM.

Consider FLMSFTILCL, for which the Kd worked out at 213 nM with HLA-A*02:03 (setting [2]), 74.4 nM with HLA-A*02:06 (setting [2]) and 0.821 nM with HLA-A*02:02 (setting [2]).

As to FVYVSVMNFI, the Kd in the test with HLA-A*02:03 (setting [1]) stood at 17.8 nM; with HLA-A*02:06 (setting [1]), 7.5 nM; in the test with HLA-A*02:02 (setting [1]), 76.5 nM.

As for GTIILNKIV, the dissociation constant (Kd) with HLA-A*02:03 (setting [1]) was 3400 nM; in the test with HLA-A*02:06 (setting [1]) it was 1430 nM; with HLA-A*02:02 (setting [1]), 1190 nM.

In the case of GTSAAAYFV, the Kd amounted to 202 nM in the test with HLA-A*02:03 (setting [2]), 90.5 nM with HLA-A*02:06 (setting [2]) and 35.2 nM with HLA-A*02:02 (setting [2]).

For the sequence IAACAMLLV, the Kd is 387 nM in the test with HLA-A*02:03 (setting [2]), 131 nM with HLA-A*02:06 (setting [2]) and 320 nM in the test with HLA-A*02:02 (setting [2]).

ILFILFFAYV: the Kd in the test with HLA-A*02:03 (setting [1]) was 366 nM; with HLA-A*02:06 (setting [1]), 1210 nM; in the test with HLA-A*02:02 (setting [1]) it was 132 nM.

In the case of ILLILSCIFA, the Kd in the test with HLA-A*02:03 (setting [1]) worked out at 307 nM; with HLA-A*02:06 (setting [1]) it was 492 nM; with HLA-A*02:02 (setting [1]) it was 448 nM.

Consider IMAFILGIII, for which the equilibrium dissociation constant (Kd) turned out to be 3160 nM in the test with HLA-A*02:03 (setting [1]), 3190 nM with HLA-A*02:06 (setting [1]) and 632 nM in the test with HLA-A*02:02 (setting [1]).

Regarding IMFMLIFNV, the Kd was 10.2 nM with HLA-A*02:03 (setting [1]), 13.1 nM with HLA-A*02:06 (setting [1]) and 0.146 nM with HLA-A*02:02 (setting [1]).

In the case of KINPLLDEPL, the Kd with HLA-A*02:03 (setting [1]) was determined as 304 nM; with HLA-A*02:06 (setting [1]) it was 18.6 nM; with HLA-A*02:02 (setting [1]) it was 53.4 nM.

KLREVYTQL: in the test with HLA-A*02:03 (setting [3]), the Kd is 39.1 nM.

For KQIMECSRML, the Kd in the test with HLA-A*02:03 (setting [1]) was not below 29600 nM; with HLA-A*02:06 (setting [1]) it was 59.5 nM; with HLA-A*02:02 (setting [1]), 54.8 nM.

Turning to KVIKLVKSLV, the Kd in the test with HLA-A*02:03 (setting [1]) turned out to be 13400 nM; with HLA-A*02:06 (setting [1]), 2140 nM; with HLA-A*02:02 (setting [1]) it was 14300 nM.

In the case of LALWDSNFFT, the Kd with HLA-A*02:03 (setting [1]) is 19900 nM; in the test with HLA-A*02:06 (setting [1]), 1250 nM; with HLA-A*02:02 (setting [1]), 11000 nM.

As for LLALNDMGKV, in the test with HLA-A*02:03 (setting [3]), the Kd came out at 15 nM.

LLEMKYALI: the Kd in the test with HLA-A*02:03 (setting [1]) turned out to be 135 nM; with HLA-A*02:06 (setting [1]) it was 14900 nM; with HLA-A*02:02 (setting [1]) it was 354 nM.

For LLKETIQKDI, the dissociation constant Kd with HLA-A*02:03 (setting [1]) is 782 nM; with HLA-A*02:06 (setting [1]) it was not below 23400 nM; with HLA-A*02:02 (setting [1]), 3060 nM.

Regarding LLMEGLKLLS, the Kd with HLA-A*02:03 (setting [4]) worked out at 39.5 nM; with HLA-A*02:06 (setting [4]) it was 1750 nM; with HLA-A*02:02 (setting [4]) it was 78.3 nM.

With LMAMDLGEL, the Kd with HLA-A*02:03 (source organism: Dengue virus 2 Peru/IQT2913/1996) stood at 6.78 nM.

For LTFGWCFKLV, the Kd with HLA-A*02:03 (setting [5]) is 167 nM; in the test with HLA-A*02:06 (setting [5]), 20.1 nM; with HLA-A*02:02 (setting [5]), 910 nM.

As for LTHGADPNA, the results for the Kd with HLA-A*02:03 (setting [1]), with HLA-A*02:06 (setting [1]) and with HLA-A*02:02 (setting [1]) were 10500 nM, not below 29400 nM and 19400 nM, respectively.

Turning to LVIGVAFLAV, the Kd worked out at 22.4 nM in the test with HLA-A*02:03 (setting [2]), 2.6 nM with HLA-A*02:06 (setting [2]) and 2710 nM with HLA-A*02:02 (setting [2]).

Regarding MAFILGIIIT, the Kd amounted to 2830 nM in the test with HLA-A*02:03 (setting [1]), 10300 nM with HLA-A*02:06 (setting [1]) and 4680 nM in the test with HLA-A*02:02 (setting [1]).

For MMNITRLEVI, the figures for the Kd with HLA-A*02:03 (setting [1]), in the test with HLA-A*02:06 (setting [1]) and in the test with HLA-A*02:02 (setting [1]) were 26.1 nM, 134 nM and 85.4 nM, respectively.
